± gives the standard deviation of the averaged measurements.
Test system: Saccharomyces cerevisiae
Experiment: protein stability index of tFT-peptide fusion (C-terminal peptide) (PSI (0-1 scale)); higher = more stable (slower turnover)
Details: genetic background: wild type; temperature: 30 C
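Note: PSI is a weighted mean of sequencing reads over stability bins, variants kept only with over 10 reads, mCherry proximal and sfGFP distal, peptide attached via GGGS linker.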

In order of falling protein stability index:
1. LSVFDTSLFFSS  0.787 ± 0.099
2. MFDSHQWVCIKD  0.785 ± 0.1
3. LSSLLFSPLPPS  0.7593 ± 0.0019
4. LSSWTYTRFLHG  0.749 ± 0.085
5. LWVGVGRWLRGR  0.744 ± 0.014
6. LTDCIHERKGTE  0.743 ± 0.017
7. LTSPPPPPARVP  0.739 ± 0.11
8. MWLGSGCWVNGL  0.735 ± 0.048
9. LSTMPLFPSLHR  0.731 ± 0.025
10. LTSWAKRMGLGD  0.731 ± 0.1
11. LWRFMLGQGFEG  0.726 ± 0.022
12. LWGVVVGELGSC  0.723 ± 0.074
13. MGYPGFGRVPYV  0.723 ± 0.053
14. MLRRSGEGVRLE  0.7218 ± 0.0045
15. LTFGAPGACGLG  0.719 ± 0.024
16. MKKVQENIKGKH  0.717 ± 0.11
17. MSEFDVPLPIYM  0.716 ± 0.063
18. LVLTLIDGSWNV  0.7011 ± 0.0056
19. MQGCKAYSVGRQ  0.701 ± 0.061
20. LVLSRSGPFSHL  0.7 ± 0.073
21. MCDSFFGHSVRN  0.699 ± 0.043
22. LVALTSVLSALF  0.698 ± 0.069
23. LTGAQPTDPNMR  0.697 ± 0.071
24. LVRILSRSVVRT  0.697 ± 0.078
25. MMFRRLPTRGRF  0.6951 ± 0.0021
26. LSTCIMFRSCGG  0.693 ± 0.041
27. LTRRCPVGAWGN  0.692 ± 0.012
28. MWQSRSAYFGSN  0.692 ± 0.075
29. LTASRLAGSGGE  0.69 ± 0.023
30. LYPSFSHTPPPT  0.69 ± 0.056
31. MVCSFVSLLGRF  0.69 ± 0.01
32. LVRASDPLSVTI  0.689 ± 0.073
33. LTPAPSSCLRSP  0.6857 ± 0.005
34. MAICRVLSQVFL  0.686 ± 0.12
35. MWYCGVSGPGNG  0.6859 ± 0.0013
36. LVSPSSPLLPPP  0.685 ± 0.082
37. LTSGTVLVLSSL  0.683 ± 0.03
38. MGVHKQQMRGQR  0.682 ± 0.036
39. MAWGVGTRRLGW  0.679 ± 0.044
40. MENAMHQLNRNT  0.679 ± 0.022
41. MKRMIKREIKIK  0.679 ± 0.089
42. LVVWSSIVSGGG  0.675 ± 0.05
43. MAIRSPACRLRF  0.674 ± 0.049
44. LVCLWQGSSVLI  0.671 ± 0.023
45. MGVGINSGDKLC  0.667 ± 0.11
46. LTSRPIPFLLRG  0.666 ± 0.014
47. LYSPLLCRLPFP  0.666 ± 0.045
48. MGGKGRGGRREI  0.666 ± 0.041
49. LVGSLGVYGVYV  0.665 ± 0.043
50. MGVGRFEWVVGG  0.665 ± 0.053
51. LVICPRVLRDFR  0.663 ± 0.05
52. LVSWFWPFSFFA  0.661 ± 0.098
53. LWPVSMTSSFFF  0.661 ± 0.048
54. LYNVTRDTWVLS  0.66 ± 0.057
55. LTATNEARNIDH  0.659 ± 0.027
56. LVSCPPPPAPPP  0.659 ± 0.06
57. MGSQATPQRENS  0.659 ± 0.12
58. MKTSIQHNRNPG  0.659 ± 0.0096
59. MQLTRKEEKSQE  0.658 ± 0.023
60. MTRGSAPELWLL  0.655 ± 0.029
61. LVLKLWNKFFVD  0.65438 ± 0.00026
62. MKIKIEINKNKT  0.654 ± 0.032
63. MLYNQDIGQELL  0.652 ± 0.058
64. LSWSLSSFACEM  0.65 ± 0.014
65. MNRHLHFLSPET  0.648 ± 0.031
66. LSYRYPLYPILL  0.647 ± 0.018
67. LVLPASSPCLFF  0.647 ± 0.034
68. LVPPPPPPSPPP  0.6457 ± 0.004
69. MVGGVLLSGCRF  0.6455 ± 0.0021
70. LVDSSLTESLDV  0.645 ± 0.034
71. MVVLSGVLPVGD  0.642 ± 0.0077
72. MAHAYTRKDTRK  0.64 ± 0.052
73. LTGFYFFFDMTL  0.6366 ± 0.0032
74. LVCRRYSGDSSS  0.637 ± 0.023
75. LWGGVVGRVRGV  0.635 ± 0.037
76. LTLCRSPMSLRA  0.633 ± 0.12
77. LVSRLAGAVLGR  0.632 ± 0.014
78. MNQELRNCKGNG  0.6259 ± 0.0034
79. LSSLHFRFLSAG  0.62 ± 0.062
80. LWISVDEGQLCH  0.617 ± 0.042
81. LTCYFSASNVLW  0.615 ± 0.046
82. LVRLNSHRYTSV  0.613 ± 0.035
83. LSSGPARVMVVL  0.608 ± 0.04
84. LTPLPPPPLRPP  0.599 ± 0.024
85. MHLRFYFLKTDV  0.597 ± 0.02
86. LYAHVPSYRVSA  0.593 ± 0.058
87. LVCGIDSLVRLV  0.57 ± 0.029
88. MLFLGPRLVVPA  0.565 ± 0.0097
89. LVFCSLLSLFFS  0.557 ± 0.012
90. LVYLQVFSSLLS  0.543 ± 0.014
91. LYVLHCSLIEEV  0.543 ± 0.051
92. MCLWMGFWFACF  0.537 ± 0.024
93. LTYVSGIASVYG  0.532 ± 0.019
94. LVVEYFLCGSIS  0.532 ± 0.035
95. LVLVSFWWSGPM  0.526 ± 0.031
96. LVILLLQLLSGT  0.51758 ± 0.00046
97. LVLFFRSYCLVV  0.5142 ± 0.0036
98. LTWCGVSEAVIA  0.50795 ± 0.00033
99. LTACLRRTNTLM  0.503 ± 0.0041
100. LVSVSVGFFLLL  0.499 ± 0.047
101. LVCGIGFIYFGF  0.492 ± 0.014

From the supplement of paper PMC10724198
